# Reference: IntAct's records for PubMed 14755250
# B1: RING finger protein 11 (Homo sapiens), Q9Y3C5 (parent)
# chain: MGNCLKSPTSDDISLLHESQSDRASFGEGTEPDQEPPPPYQEQVPVPVYHPTPSQTRLATQLTEEEQIRIAQRIGLIQHLPKGVYDPGRDGSEKKIRECVICMMDFVYGDPIRFLPCMHIYHLDCIDDWLMRSFTCPSCMEPVDAALLSSYETN
# partner: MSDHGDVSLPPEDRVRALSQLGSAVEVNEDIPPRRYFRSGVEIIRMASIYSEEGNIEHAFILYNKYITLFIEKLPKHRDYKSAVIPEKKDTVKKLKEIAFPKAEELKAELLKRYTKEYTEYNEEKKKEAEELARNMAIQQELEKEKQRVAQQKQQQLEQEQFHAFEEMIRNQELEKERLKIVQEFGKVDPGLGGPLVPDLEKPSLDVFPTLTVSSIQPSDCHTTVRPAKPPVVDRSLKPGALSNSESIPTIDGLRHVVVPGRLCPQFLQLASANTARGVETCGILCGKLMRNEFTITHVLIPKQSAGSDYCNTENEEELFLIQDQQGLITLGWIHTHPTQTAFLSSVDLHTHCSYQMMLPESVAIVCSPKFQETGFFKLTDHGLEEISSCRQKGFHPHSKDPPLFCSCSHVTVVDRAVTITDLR
# Variants of: B1
# Settings: with stabp_human STAMBP
row,Variant,effect of a mutation on the interaction
1,MGNCLKSPTSDDISLLHESQSDRASFGEGTEPDQEPPPPYQEQVPVPVYHPTPSQTRLATQLTEEEQIRIAQRIGLIQHLPKGVYDPGRDGSEKKIREAVICMMDFVYGDPIRFLPCMHIYHLDCIDDWLMRSFTCPSCMEPVDAALLSSYETN,decreasing interaction
